Patent publication US8620595B2, “Methods for determining the retention of peptides in reverse phase chromatography using linear solvent strength theory” (University of Manitoba, priority 2010, dated 2013)

experiment: Isocratic elution measurement of slope S (log k vs. φ plots), RP-HPLC with UV detection; assay type: physicochemical; details: Luna C18(2) column, water/acetonitrile with 0.1% formic acid, 22-23° C.
Protocol: (§1) Chromatography. All chromatographic experiments were conducted at a controlled temperature of 22-23° C. For isocratic measurement of the slope values, a micro-Agilent 1100 Series system (Agilent Technologies, Wilmington, Del.), was used with a 1 mm×100 mm 5 μm Luna C18(2) (Phenomenex, Torrance, Calif.) column and a UV detector operated at 214 nm. Both eluents A (water) and B (acetonitrile) contained 0.1% formic acid as ion-pairing modifier. Stock solutions of the 11 standard peptides (˜1 mg/ml) were prepared by dissolving each peptide in 1 ml of 0.1% FA in water or a 20% acetonitrile solution. Ten microliters of sample was injected. Individual peptides were diluted to provide ˜0.5-1 μg injection of each component using a 10 μl loop. The dead volume of the column and connecting tubings was determined by injecting a non-retained compound (water) and measuring the elution time of the negative peak at a 150 μL/min flow rate. Retention factors for isocratic elution were calculated using the formula: k=(tR−t0)/t0c; where tR is the retention time, t0 is the system (column and tubings) dead time, and t0c is the column dead time. Additional details of measuring S-values via constructing log k vs. φ plots are provided elsewhere.^24 The nano-LC MS/MS experiments were conducted using splitless Tempo LC system (Eksigent, Dublin, Calif.) with 20 μL sample injection via a 300 μm×5 mm PepMap100 (Dionex, Sunnyvale, Calif.) trap-column and a 100 μm×200 mm analytical column packed with 5 μm Luna C18(2) (Phenomenex, Torrance, Calif.). Tryptic digests of the mixtures were spiked with calibrating peptides (see Table 1) as described above, injected on the trap-column using buffer A as a carrier and separated using 0.1875, 0.375 and 0.75 percent acetonitrile per minute linear gradients starting from 0.5% acetonitrile at 500 nL/min flow rate. The composition of both eluents A and B was identical to one described above for normal-flow system. Gradient programs consisted of a 0.5-40% linear increase of buffer B in 213.2, 106.6 and 53.3 minutes, respectively. After each run the gradient columns were washed with 80% B for 3 minutes and equilibrated with the starting A:B ratio for 18 minutes.
Accordingly, for the determination of S-values of the set of synthetic peptides we used an isocratic elution procedure, despite it being extremely labor intense.^23 Isocratic measurements consist of determining retention times of peptides at several constant acetonitrile concentrations and plotting experimental Eqn. 1 for each peptide.
These two ways of measurement have been combined to provide a highly accurate and fast way of determining S for an extensive sets of peptides (see FIG. 3). First, precise isocratic measurement of S is performed in normal flow conditions with UV detection for a set of synthetic “S-calibrating” peptides. Similar to the previously described peptide mixture P1-P6 designed to cover wide range of hydrophobicities, these peptides were chosen to cover wide range of S-values (Table 1). Second—a tryptic digest of the bovine proteins mixture (model mixture) is spiked with the “S-calibrating” peptides and run under two different gradient slopes in nano-flow RP-HPLC MS: 0.75 and 0.1875% acetonitrile per minute in our case. Third—retention times are assigned for all identified species. Fourth—retention time shifts in acetonitrile percentage (ACN %) units relative to P3 were determined as: Δ=(tR 0.75−tRP3 0.75)*0.75−(tR 0.1875−tRP3 0.1875)*0.1875 (3); where tR 0.75 and tRP3 0.75 are the retention times of any peptide and reference P3 at 0.75% per minute, and tR 0.1875 and tRP3 0.1875 are the retention times of any peptide and reference P3 at 0.1875% acetonitrile per minute gradient, respectively. Fifth—an experimental Δ vs. S curve was plotted for S-calibrating peptides (FIG. 3). Sixth—S values were extracted from this dependence for all peptides observed in both nano-RP-HPLC MS runs by extrapolation of experimental Δ on this plot.

First: LAGGGSASSSADAAAFR [Peptide 9, synthetic S-calibrating peptide]
Second: LAGGGSASSSAHAAAFR [Peptide 11, synthetic S-calibrating peptide]
The “Slope (S in the basic LSS equation)” value of the first is lower: 34.8 for the first, 44.66 for the second.

Going from “LASAADFR [Peptide 6, synthetic S-calibrating peptide]” to “LASAAHFR [Peptide 7, synthetic S-calibrating peptide]”, the “Slope (S in the basic LSS equation)” value rises from 27.07 to 35.59.

In the case of “LGGGGGGDFR [Peptide 1, synthetic S-calibrating peptide]”, the “Slope (S in the basic LSS equation)” value is reported as 28.2.

experiment: Determination of S from retention time shift Δ relative to P3 at two gradient slopes, nano-RP-HPLC MS of spiked tryptic digest; assay type: physicochemical; details: experimental S value, LC-MS runs of model peptide mixture
Protocol: Proteins and protein digestion. Tryptic digests of two different protein mixtures were utilized. The “test peptide mixture” contained human proteins: albumin, transferrin, fibrinogen. The “model peptide mixture” contained bovine proteins: albumin, transferrin, fibrinogen, catalase. Equimolar mixtures of the proteins were prepared, reduced with DTT, alkylated with iodoacetamide and digested with sequencing-grade modified trypsin (Promega, Madison, Wis.). Prior to nano-LC MS/MS analysis, mixtures were diluted with buffer A (0.1% formic acid in water) and spiked with the 6 standard peptides P1-P6^24 for test mixture and the set of 11 model peptides (described elsewhere^23) for a model mixture. All dilutions were performed to provide an injection of ˜100 fmole of each component into the nanoRP-HPLC MS system.
as §1
Mass spectrometry. A QStar Elite mass spectrometer (Applied Biosystems, Foster City, Calif.) equipped with a MicrolonSpray II source was used in standard MS/MS information dependent acquisition (IDA) mode for LC-ESI analyses. Protein identification was performed using Protein Pilot 3.0 (Applied Biosystems, Foster City, Calif.) with a restricted database containing target protein sequences and the sequences of standard peptides. Retention times of identified species (peak maxima) were assigned manually.
These two ways of measurement have been combined to provide a highly accurate and fast way of determining S for an extensive sets of peptides (see FIG. 3). First, precise isocratic measurement of S is performed in normal flow conditions with UV detection for a set of synthetic “S-calibrating” peptides. […]

First: NLRETAEEVK
Second: NLSVEDAAR
The “Slope (experimental)” value of the first is higher: 40.778 for the first, 32.289 for the second.

Going from NTPEKGYLAVAVVK to NTVDSVSR, the “Slope (experimental)” value rises from 34.392 to 40.092.

Compared with NWIQYK, QAYPNLCQLCK is higher in “Slope (experimental)” value: 26.629 for the first, 32.399 for the second.

Going from QEPERNECFLSHKDDSPDLPK to QFVSSSTTVNR, the “Slope (experimental)” value falls from 45.147 to 37.462.

First: QNCDQFEK
Second: QNQVQDNENWNEYSSHLEK
The “Slope (experimental)” value of the first is lower: 36.657 for the first, 40.065 for the second.

Compared with QTALVELLK, QVLLHQQALFGK is higher in “Slope (experimental)” value: 24.2 for the first, 33.087 for the second.

First: RAFALECIR
Second: RHPYFYAPELLYYANK
The “Slope (experimental)” value of the first is lower: 31.043 for the first, 35.968 for the second.

First: RLCENIAGHLK
Second: RLDGSLDFKK
The “Slope (experimental)” value of the first is higher: 40.229 for the first, 35.968 for the second.

First: RPCFSALTPDETYVPK
Second: RTPIAVR
The “Slope (experimental)” value of the first is lower: 38.129 for the first, 39.365 for the second.

First: RWQWR
Second: SILENLR
The “Slope (experimental)” value of the first is higher: 27.269 for the first, 24.865 for the second.

Compared with SMMEEIMK, SNLQLLR is lower in “Slope (experimental)” value: 25.394 for the first, 24.614 for the second.

Going from SQLQEAPLEWK to TFYLK, the “Slope (experimental)” value falls from 28.576 to 22.874.

First: THFSGDVQR
Second: TPCTVTCNIPVVSGK
The “Slope (experimental)” value of the first is higher: 42.53 for the first, 34.721 for the second.

Compared with TPIAVR, TSDANINWNNLK is lower in “Slope (experimental)” value: 33.313 for the first, 30.109 for the second.

First: TSDANINWNNLKDKK
Second: TSSSTFQYITLLK
The “Slope (experimental)” value of the first is higher: 39.525 for the first, 29.703 for the second.

Compared with TSTADYASFK, TVMENFVAFVDK is lower in “Slope (experimental)” value: 30.833 for the first, 28.849 for the second.

Going from TYDSYLGDDYVR to VDLEDYK, the “Slope (experimental)” value falls from 31.66 to 28.987.

Compared with VFEHIGK, VFEHIGKR is higher in “Slope (experimental)” value: 34.229 for the first, 41.112 for the second.

First: VGDANPALQK
Second: VIEQVQR
The “Slope (experimental)” value of the first is higher: 38.388 for the first, 38.258 for the second.

First: VLDALDSIK
Second: VPQVSTPTLVEVSR
The “Slope (experimental)” value of the first is lower: 26.128 for the first, 33.745 for the second.

Going from VVQLEANCQEPCQDTVK to VVWCAVGPEEQK, the “Slope (experimental)” value falls from 39.579 to 29.603.

Going from VWPHGDYPLIPVGK to VYCDMK, the “Slope (experimental)” value rises from 34.183 to 35.652.

Going from WCAIGHQER to WCTISQPEWFK, the “Slope (experimental)” value falls from 35.992 to 30.438.

Compared with WDPYK, WQWR is lower in “Slope (experimental)” value: 26.36 for the first, 22.398 for the second.

Going from WYSMK to WYSMKK, the “Slope (experimental)” value rises from 25.257 to 33.268.

Compared with YAAELHLVHWNTK, YCGVPGEYWLGNDR is lower in “Slope (experimental)” value: 36.188 for the first, 29.184 for the second.

First: YETLISTHESTIR
Second: YICDNQDTISSK
The “Slope (experimental)” value of the first is lower: 36.09 for the first, 37.666 for the second.

Compared with YLTTLK, YLYEIAR is lower in “Slope (experimental)” value: 27.604 for the first, 27.362 for the second.

Compared with YQLSVSK, YYGYTGAFR is lower in “Slope (experimental)” value: 31.531 for the first, 29.343 for the second.

same assay, conditions: experimental S, LC-MS runs of model peptide mixture, formic acid

Going from NYELLCGDNTR to NYELLCGDNTRK, the “Slope (experimental)” value rises from 27.868 to 31.767.

First: QDGSVDFGR
Second: QGFGNIATNAEGK
The “Slope (experimental)” value of the first is lower: 28.518 for the first, 31.595 for the second.

First: QGFGNIATNAEGKK
Second: QSPVDIDTK
The “Slope (experimental)” value of the first is higher: 37.184 for the first, 31.703 for the second.

Going from RHPEYAVSVLLR to RLDGSLDFK, the “Slope (experimental)” value falls from 32.553 to 29.845.

Compared with SEDGSDCGDADFDWHHTFPSR, SFQLFGSPPGQR is lower in “Slope (experimental)” value: 37.158 for the first, 24.764 for the second.

Going from SHCIAEVEK to SIEDLR, the “Slope (experimental)” value falls from 41.223 to 28.058.

First: SLHTLFGDELCK
Second: SVDGKEDLIWK
The “Slope (experimental)” value of the first is higher: 30.438 for the first, 30.068 for the second.

Going from TCVADESHAGCEK to TGLAPEFAALGESGSSSSK, the “Slope (experimental)” value falls from 47.601 to 28.402.

Going from TGQIFK to TSHMDCIK, the “Slope (experimental)” value rises from 24.984 to 40.393.

Going from VDSALYLGSR to “VHKECCHGDLLECADDR [fragment from bovine albumin]”, the “Slope (experimental)” value rises from 27.122 to 42.014.

First: VHKECCHGDLLECADDRADLAK
Second: VLNEEQR
The “Slope (experimental)” value of the first is higher: 44.599 for the first, 40.229 for the second.

First: VTALYEGFTVQNEANK
Second: VTGENDKYR [moderately sized, hydrophilic tryptic species of the model peptide mixture]
The “Slope (experimental)” value of the first is lower: 30.77 for the first, 49.044 for the second.

First: VVWCAVGPEEQKK
Second: WCTISTHEANK
The “Slope (experimental)” value of the first is lower: 33.2 for the first, 37.234 for the second.

For YNGVFQECCQAEDK, the “Slope (experimental)” value was 32.73.

same assay, conditions: model peptide mixture (tryptic digest of bovine proteins), 0.75 and 0.1875% acetonitrile per minute gradients, formic acid, S from Δ vs. S curve of S-calibrating peptides

In the case of “VHKECCHGDLLECADDR [fragment from bovine albumin]”, the “experimental S-value” is reported as about 42.

In the case of “VTGENDKYR [moderately sized, hydrophilic tryptic species of the model peptide mixture]”, the “experimental S-value” is reported as 49.0.
